The target in this assay is T1, NY-ESO-1 (human, UniProt P78358 1-180, limits assumed).
T1 construct: Tumor antigen; coated on ELISA plates (ThermoFisher or RayBiotech) and amine-coupled to a CM5 chip for SPR (RayBiotech); also called NY-ESO-1/CTAG1B
Put plainly: SPR, NY-ESO-1 immobilised on CM5, antibody as analyte, bivalent analyte model. Background: Surface plasmon resonance follows binding to a sensor surface in real time, without labels.

T1 sequence (P78358 whole entry): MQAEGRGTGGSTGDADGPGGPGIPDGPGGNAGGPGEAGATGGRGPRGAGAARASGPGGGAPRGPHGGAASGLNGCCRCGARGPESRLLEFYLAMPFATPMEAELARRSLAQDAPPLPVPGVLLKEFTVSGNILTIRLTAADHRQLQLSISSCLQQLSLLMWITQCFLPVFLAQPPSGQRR
Description: Binding experiments were performed in HBS-EP buffer (10 mM HEPES pH 7.4, 150 mM NaCl, 3.4 mM EDTA, and 0.005% P20 surfactant). Serially diluted antibodies were injected at a flow rate of 30 μL/min for 60 s with a dissociation time of 5 min. The chip was regenerated after each run by sequential injection of 10 mM glycine, pH 3, and 500 mM arginine, pH 8 for 1 min each. For each run, a bovine serum albumin (BSA)-coupled surface was used to subtract non-specific receptor binding.

B1: BC2-3G1 (antibody, V domains shown)
VH: QVQLQQSGPGLVKPSQTLSLTCAISGDSVSSNSAAWNWIRQSPSRGLEWLGRTYYRSKWYNDYAVSVKSRITINPDTSKNQFSLQLNSVTPEDTAVYYCARDLGIAAAGDFDYWGQGTLVTVSS
VL: EIVLTQSPATLSLSPGERATLSCRASQGVSSYLAWYQQKPGQAPRLLIYDASNRATGIPARFSGSGSGTDFTLTISSLEPEDFAVYYCHQGSNWPTFGGGTKVEI
notes: also called BC2-3G lineage member 1; BC2-3G sub-lineage 1
Turning to B1, the binding result is “binds”.

Values taken from patent US20200270704A1 (University of Texas, published 2020).
